Measured values reported in US8791249B2, “Nucleic acid encoding humanized c-kit antibody” (Amgen Inc., priority 2006, dated 2014).
Values joined by “and” are separate entries in the source; they are usually repeats but may differ in a detail not shown here. Equal entries are not always repeated. “Also recorded” adds a separate entry of the source.

How the values were obtained:
c-Kit [1] = target: T1, c-Kit (Homo sapiens, UniProt P10721); assay: Cell based assays of c-Kit signaling (functional potency, agonism, internalization); parameters: endogenous in cells; host or cells: MO7e cells; cultured human mast cells derived from bone marrow CD34+ cells; primary human CD34+ CD117+ bone marrow cells; UT-7 cells; conditions: all cell based assays tested
Excerpt: These properties are potentially undesirable since the aim of a therapeutic strategy is to apoptotically deplete mast cells and precurors by blocking the survival SCF signal and to avoid mast cell activation that could lead to anaphylactoid reactions in vivo. When the mouse SR-1 CDR regions were inserted in the human IgG1 framework, affinity and functional potency were also maintained, but this background is less desirable due to the complement activation and cell mediated cytotoxicity often found with this isotype of antibody.
The aglycosylated IgG1 isotype was chosen to avoid effector function and cell killing through bystander effects. […] It also depletes mast cells in vivo as expected.

[2] = Exposure after repeated once-weekly dosing; format: in vivo, African green monkeys; conditions: preliminary exposure data
Excerpt: Based on preliminary exposure data of SR-1 and humanized antibodies in African green monkeys after repeated once-weekly dosing, humanized antibodies achieved higher exposures compared to SR-1. […] 1992; 35(3): 165-74.

c-Kit in MO7e cells = assay: SCF-mediated c-Kit phosphorylation and internalization in MO7e cells; format: cell-based
[3] = system: Cultured human mast cells derived from bone marrow CD34+ cells; assay: Cultured human mast cell assays (survival, c-Kit phosphorylation, aggregation); format: cell-based
[4] = system: U-937 cells expressing Fcγ receptor I=CD64, Fcγ receptor II=CD32 and Fcγ receptor III=CD16; assay: Non-specific FcR binding to U-937 cells; format: cell-based
Excerpt: (§1) In contrast, binding of SR-1 IgG1 and IgG4β isotypes was detected presumably to the high affinity FcγRI. […] Aglycosylated chimeric mouse/human IgG1 antibodies have been reported to […] (Hybridoma. 1991 April; 10(2):211-7) and so these desired activities of hSR-1 aIgG1 are not expected.

[5] = system: basal lung and colon mast cells; assay: Depletion of basal lung and colon mast cells in monkey; format: in vivo
Procedure: (§2) The SR-1 monoclonal antibody was selected based on its equivalent functional potency at human and monkey c-Kit in the CD34+ bone marrow cell CFU assay (inhibition at 1.0 ug/mL), and its monkey PK.
[…] […] For practical reasons, basal pulmonary mast cells were evaluated on day 28 at the time of necropsy and the termination of the study.

[6] = Preliminary PK study after single IV or SC administration
Procedure: A preliminary PK study was conducted to compare hSR-1 IgG2 and hSR-1 aIgG1 PK in male cynomolgus monkeys after a single IV or SC administration at 3 mg/kg.

[7] = Human dose projection (body surface area-based dose conversion); conditions: equivalent dosing regimen, preliminary estimation
Procedure: The minimal effective dose in the wound PD model of mast cell expansion is <0.3 mg/Kg administered once weekly for 2 weeks in monkeys. Based on a body surface area-based dose conversion, the minimal effective dose in human is projected to be <0.1 mg/Kg with an equivalent dosing regiment. However, this is a preliminary estimation as the PK and the pharmacodynamic relationship between the degree and duration of c-kit inhibition in human by hSR-1 aIgG1 and clinical endpoints are unknown at this time. A more accurate projection will be made when more pharmacokinetic and pharmacodynamic data are available.

[8] = Effector function (CDC, ADCC); format: cell-based
Excerpt: as §1

c-Kit dimer = assay: Biacore binding to c-Kit dimer versus soluble monomer; parameters: species or system human
Excerpt: Activation of c-Kit upon binding by stem cell factor (SCF) leads to dimerization/oligomerization, autophosphorylation and receptor internalization, most likely through a clathrin-dependent pathway. The SR-1 monoclonal antibody binds the c-Kit dimer with 1000-fold higher affinity compared to the soluble c-Kit extra-cellular domain monomer as determined by Biacore.
Carbohydrates present on a glycoprotein can influence biological and functional properties. […] This is an important characteristic not predicted to be translated with certainty with the humanization and as the soluble c-Kit monomer is less likely to act as a sink for the antibody in vivo.

[9] = system: wound activated skin mast cells; assay: Wound pharmacodynamic model of mast cell expansion in monkey; conditions: for Fold UT-7 IC50 (Ctrough) / Inhibition of activated skin mast cells: day 14; for minimal effective dose in the wound PD model: once weekly for 2 weeks in monkeys; for inhibition of wound activated expansion of mast cells: 3 weeks
[10] = In vivo tolerability in non-human primates; conditions: up to 30 mg/kg once weekly for 4 weeks or up to 150 mg/kg subcutaneously once weekly for 2 weeks
[11] = system: human CD34+, CD 117+ (c-Kit) bone marrow cells; assay: CD34+ bone marrow cell CFU assay (SCF/GM-CSF colony formation), human; format: cell-based
Procedure: as §2

monkey c-Kit = assay: CD34+ bone marrow cell CFU assay, monkey; format: cell-based; conditions: 1.0 ug/mL
Procedure: as §2

hematopoiesis = assay: Hematopoiesis in SR-1 dose-ranging study; format: in vivo, African green monkey
Procedure: (§3) SR-1 was used in dose-ranging studies from 3 to 30 mg/Kg administered once weekly for 4 weeks to determine the exposures required to inhibit hematopoiesis, spermatogenesis and active melanogenesis. A full blood panel including cell differentials was performed on blood samples taken at baseline, day 4, 7, 14, 21 and 28 after the start of the study. Analysis of freshly isolated blood samples was performed at the Queen Elizabeth Hospital Clinical Hematology lab, Barbados.
(§4) The effect of 3-30 mpk administered once weekly for 4 weeks on melanogenesis was also examined since there may be utility in melanoma. To assess the effects on activated melanocytes which may better reflect a disease state, hair was depilated to activate melanogenesis. […] In the 10 mg/Kg cohort, SR-1 exposures were >8000-fold the UT-7 IC50.

c-Kit [12] = target: T1, c-Kit; parameters: endogenous in cells; host or cells: MO7e cells; cultured human mast cells derived from bone marrow CD34+ cells; primary human CD34+ CD117+ bone marrow cells; UT-7 cells; conditions: Broudy, J Cell Physiol. 1994; cited from earlier work
melanocytes = assay: Melanogenesis (hair pigmentation after depilation) in dose-ranging study; format: in vivo, monkeys
Procedure: as §3, §4

spermatogenesis = assay: Spermatogenesis in dose-ranging study; format: in vivo, monkey
[13] = IV, 3 mg/kg, male cynomolgus monkeys
[14] = SC, 3 mg/kg, male cynomolgus monkeys

Sequence of c-Kit dimer (P10721 26-509 limits assumed): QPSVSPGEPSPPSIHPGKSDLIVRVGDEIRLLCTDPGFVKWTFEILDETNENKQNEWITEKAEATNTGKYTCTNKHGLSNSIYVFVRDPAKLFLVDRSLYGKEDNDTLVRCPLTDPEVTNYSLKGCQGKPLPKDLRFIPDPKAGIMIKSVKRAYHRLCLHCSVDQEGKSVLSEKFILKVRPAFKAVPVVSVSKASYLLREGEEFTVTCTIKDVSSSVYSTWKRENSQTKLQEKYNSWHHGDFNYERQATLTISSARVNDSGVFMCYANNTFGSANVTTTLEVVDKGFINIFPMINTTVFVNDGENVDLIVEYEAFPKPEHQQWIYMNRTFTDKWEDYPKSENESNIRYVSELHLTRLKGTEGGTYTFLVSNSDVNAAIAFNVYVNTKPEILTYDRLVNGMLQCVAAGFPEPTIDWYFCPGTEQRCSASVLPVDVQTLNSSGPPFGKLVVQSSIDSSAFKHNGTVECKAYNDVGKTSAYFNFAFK
T1 sequence (P10721 26-976): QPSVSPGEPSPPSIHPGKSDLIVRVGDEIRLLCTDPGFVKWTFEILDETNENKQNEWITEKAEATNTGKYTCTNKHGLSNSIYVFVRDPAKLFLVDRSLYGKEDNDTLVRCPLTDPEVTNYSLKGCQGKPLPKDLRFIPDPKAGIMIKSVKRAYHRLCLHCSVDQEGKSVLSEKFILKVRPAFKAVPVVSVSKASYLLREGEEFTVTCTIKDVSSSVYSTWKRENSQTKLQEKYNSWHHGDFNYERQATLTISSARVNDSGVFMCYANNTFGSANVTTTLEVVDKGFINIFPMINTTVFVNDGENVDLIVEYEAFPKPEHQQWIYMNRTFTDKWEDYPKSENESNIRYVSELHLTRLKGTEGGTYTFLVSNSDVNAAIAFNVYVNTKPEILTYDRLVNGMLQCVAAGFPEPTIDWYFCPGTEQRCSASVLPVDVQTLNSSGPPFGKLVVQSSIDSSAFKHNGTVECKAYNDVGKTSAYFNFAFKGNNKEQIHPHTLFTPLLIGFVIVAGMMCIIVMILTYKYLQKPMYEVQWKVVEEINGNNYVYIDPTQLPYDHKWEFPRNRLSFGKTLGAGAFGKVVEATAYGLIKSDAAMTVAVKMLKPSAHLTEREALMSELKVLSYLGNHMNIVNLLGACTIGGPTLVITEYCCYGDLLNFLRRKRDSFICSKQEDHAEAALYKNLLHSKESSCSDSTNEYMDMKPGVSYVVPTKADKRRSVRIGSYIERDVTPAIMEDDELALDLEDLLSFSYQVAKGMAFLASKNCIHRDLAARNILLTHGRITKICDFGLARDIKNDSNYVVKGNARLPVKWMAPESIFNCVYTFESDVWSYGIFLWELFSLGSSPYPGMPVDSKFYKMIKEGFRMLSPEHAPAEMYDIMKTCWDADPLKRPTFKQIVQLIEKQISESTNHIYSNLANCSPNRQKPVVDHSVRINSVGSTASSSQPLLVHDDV

## hSR-1 aIgG1: Humanized anti-c-Kit aglycosylated IgG1 antibody; kappa light chain SEQ ID NO: 2, heavy chain SEQ ID NO: 4
c-Kit [1]
  antagonism of SCF: highly potent neutral antagonist
c-Kit [1]; proximal and distal read-outs
  agonism of c-Kit: no agonism
[2]
  exposure compared within group: equal best in group PK
c-Kit in MO7e cells
  inhibition of SCF-mediated c-Kit phosphorylation and internalization: potently inhibited
c-Kit in MO7e cells; antibody alone
  agonism in c-Kit receptor proximal phosphorylation read-out: no evidence of agonism
[3]
  homotypic mast cell aggregation / clustering: no ability to mediate homotypic mast cell aggregation
  inhibition of SCF-dependent mast cell survival: inhibited
[3]; FIG. 3
  c-Kit receptor phosphorylation mediated by the antibody: did not mediate
[3]; antibody alone
  survival signal conferred to mast cells (agonist activity): conferred no survival signal
[4]
  non-specific FcR binding: no detectable
[5]; 0.3 mg/kg once weekly, day 14
  Depletion of basal colon mast cells: no efficacy; also recorded: No effect
[5]; 1.0 mg/kg once weekly, day 14
  Depletion of basal colon mast cells: >65%
[5]; 3.0 mg/kg once weekly, day 14
  Depletion of basal colon mast cells: >95%
[6]; [13]
  AUC0-tlast: 9710 µg·h/mL
  C0: 103 µg/mL
[6]; IV, 3 mg/kg, calculated based on AUC0-tlast
  CL: ≦0.309 mL/hr/kg
[6]; [14]
  AUC0-tlast: 7970 µg·h/mL
  Cmax: 36.4 µg/mL
  Tmax: 72 h
[6]; single IV or SC 3 mg/kg
  PK time profile: non-linear PK
[7]
  projected minimal effective dose in human: < 0.1 mg/kg
[8]
  complement dependent cytotoxic cell death: no complement dependent cytotoxic cell death
[8]; predicted from lack of FcR binding
  ADCC activity: no ADCC activity
c-Kit dimer
  binding to receptor dimer / membrane c-Kit versus monomer / soluble c-Kit: higher affinity to the membrane c-Kit compared to soluble c-kit; also recorded: high affinity to the receptor dimer versus monomer
[9]; 0.3 mg/kg once weekly
  Fold UT-7 IC50 (Ctrough): >200 fold
[9]; 1.0 mg/kg once weekly
  Fold UT-7 IC50 (Ctrough): >2000 fold
  Inhibition of activated skin mast cells: >95%
[9]; 3.0 mg/kg once weekly
  Fold UT-7 IC50 (Ctrough): >7000 fold
  Inhibition of activated skin mast cells: >95%
[9]
  minimal effective dose in the wound PD model: < 0.3 mg/kg
[10]
  abnormalities on in vivo dosing: No unexpected abnormalities
[11]
  survival relative to baseline: inhibit survival below baseline
[11]; 1.0 ug/mL
  neutralization of the synergistic effect of SCF on GM-CSF derived colony formation: neutralization
[11]; up to 10 ug/mL
  intrinsic agonistic survival activity: no intrinsic agonistic survival activity

B1: SR-1: Murine anti-human c-Kit antibody; light chain SEQ ID NO: 8, muIgG2a heavy chain SEQ ID NO: 10 (antibody, listed as Homo sapiens)
heavy: MGWSCIILFLVATATGVHSQVQLQQPGAELVKPGASVKMSCKASGYTFTSYNMHWVKQTPGQGLEWIGVIYSGNGDTSYNQKFKGKATLTADKSSSTAYMQINSLTSEDSAVYYCARERDTRFGNWGQGTLVTVSAAKTTAPSVYPLAPVCGDTTGSSVTLGCLVKGYFPEPVTLTWNSGSLSSGVHTFPAVLQSDLYTLSSSVTVTSSTWPSQSITCNVAHPASSTKVDKKIEPRGPTIKPCPPCKCPAPNLLGGPSVFIFPPKIKDVLMISLSPIVTCVVVDVSEDDPDVQISWFVNNVEVHTAQTQTHREDYNSTLRVVSALPIQHQDWMSGKEFKCKVNNKDLPAPIERTISKPKGSVRAPQVYVLPPPEEEMTKKQVTLTCMVTDFMPEDIYVEWTNNGKTELNYKNTEPVLDSDGSYFMYSKLRVEKKNWVERNSYSCSVVHEGLHNHHTTKSFSRTPGK
light: METDTLLLWVLLLWVPGSTGNIVLTQSPASLAVSLGLRATISCRASESVDIYGNSFMHWYQQKPGQPPKLLIYLASNLESGVPARFSGSGSRTDFTLTIDPVEADDAATYYCQQNNEDPYTFGGGTKLEIKRADAAPTVSIFPPSSEQLTSGGASVVCFLNNFYPKDINVKWKIDGSERQNGVLNSWTDQDSKDSTYSMSSTLTLTKDEYERHNSYTCEATHKTSTSPIVKSFNRNEC
Monkey c-Kit
  functional potency at monkey c-Kit in CFU assay: inhibition
hematopoiesis; 30 mg/Kg once weekly over 4 weeks
  exposure levels as fold the UT-7 IC50: > 70,000 fold
hematopoiesis; 3 to 30 mg/Kg once weekly for 4 weeks, versus control and baseline
  impact on hematological parameters: No significant impact
hematopoiesis; 4 weeks after dosing started
  RBCs: non-significant decreases
hematopoiesis; bone marrow
  CD117 positive hematopoietic stem cells: no depletion
hematopoiesis; monkey, in vivo
  bone marrow histopathological analysis: no difference between drug treated and control cohorts
c-Kit [12]
  intrinsic activity at c-Kit: some agonist-like activity
[5]; 3.0 mg/Kg once weekly, basal lung mast cell depletion
  Ctrough PK level as fold the UT-7 cellular IC50: > 200 fold
[5]; 3.0 mg/Kg once weekly, day 28
  depletion of basal lung mast cells: depletion of basal lung mast cells was observed
[5]; 3 mg/Kg to 30 mg/Kg once weekly, after 2 doses by day 14
  depletion of basal colon mast cells, time course: maximally depleted
[5]; day 14
  Ctrough as fold the cell IC50 at depletion of basal mast cells: > 800 fold
melanocytes; 10 mg/Kg cohort
  exposures as fold the UT-7 IC50: > 8000 fold
  pigmentation of newly regrown hair: No effect
melanocytes; 30 mg/Kg dose
  pigmentation of newly regrown hair: inhibition of hair pigmentation to variable degrees
melanocytes; 3-30 mpk once weekly for 4 weeks, any cohort
  normal hair color of the coat: not visibly affected
melanocytes; monkey, in vivo
  exposure (fold the cell IC50) required before qualitative impacts on pigmentation of newly regrown hair: > 8000 fold
melanocytes; once weekly for 4 weeks
  no effect dose on hair pigmentation: 10 to 30 mg/kg
c-Kit dimer; Biacore
  affinity for c-Kit dimer compared to soluble c-Kit extra-cellular domain monomer: 1000 fold
spermatogenesis; 0.3 mg/Kg once weekly
  effect on spermatogenesis at lowest dose: less than the maximal effect; also recorded: sub-maximal effect
  exposure as fold the UT-7 IC50: 7 fold and > 7 fold
spermatogenesis; 0.3-30 mg/Kg
  inhibition of spermatogenesis: dose-dependent inhibition
spermatogenesis; 9 months, all dosed animals
  recovery of spermatogenesis: Normal spermatogenesis
[9]; 0.3 mpk dose
  inhibition of wound activated expansion of mast cells: partial inhibition
[9]; 1 and 3 mg/Kg cohorts
  inhibition of wound activated expansion of mast cells: maximal efficacy
[9]; FIG. 1
  effect on mast cells in wound activated model: inhibits mast cells
[9]; monkey, in vivo
  sustained Ctrough exposure (fold the IC50) required for maximal inhibition of wound-expanded mast cells: > 7 fold
[9]
  minimal effective dose in the wound PD model: < 0.3 mg/kg
[11]; 1.0 ug/mL
  functional potency at human c-Kit in CFU assay: inhibition
